Legend:
[1] = target: ferret α2-antiplasmin (ferret); assay: cell-based or functional assay
[2] = target: T1, human alpha-2-antiplasmin (human, UniProt P08697 40-491, limits assumed, 125I-labelled in the radioimmunoassays; biotinylated in the competition assay of Example 5); assay: cell-based or functional assay
T1 sequence (looked up): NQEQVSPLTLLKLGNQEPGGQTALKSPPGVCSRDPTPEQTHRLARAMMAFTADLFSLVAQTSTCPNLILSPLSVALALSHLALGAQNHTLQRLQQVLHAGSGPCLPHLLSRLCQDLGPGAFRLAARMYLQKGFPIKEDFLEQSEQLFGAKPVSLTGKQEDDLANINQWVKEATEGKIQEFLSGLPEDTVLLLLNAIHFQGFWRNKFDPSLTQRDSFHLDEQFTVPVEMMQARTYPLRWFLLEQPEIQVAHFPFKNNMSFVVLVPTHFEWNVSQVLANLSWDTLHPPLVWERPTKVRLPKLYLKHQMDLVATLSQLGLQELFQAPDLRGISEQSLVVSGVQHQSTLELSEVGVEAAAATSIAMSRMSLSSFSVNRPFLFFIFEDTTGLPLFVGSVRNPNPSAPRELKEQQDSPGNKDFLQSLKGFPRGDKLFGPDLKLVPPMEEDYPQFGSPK

- inhibition of ferret α2AP activity in plasma, ex vivo, 1 and 4 hours after 22.5 mg/kg i.v. (chromogenic plasmin inhibition assay) [1]: 75%
- increase in potency of lysis by urokinase (dose response with and without MAb) [2]: ~100 fold
B1: monoclonal antibody 77A3 (antibody, V domains shown)
VH: QIQLVQSGPELKKPGETVKISCKASGYTFTNYGMNWVKQAPGKGLKWMGWINTKSGEPTYAEEFKGRFAFSLETSASTANLQIKNLKNEDTATYFCARWVPGTYAMDYWGQGTSVTVSS
VL: DIQMTQSPASLSASVGETVTITCRASGNIHNYLAWYQQKQGKSPQLLVYNAKTLADGVPSRFSGSGSGTQFSLKINSLQPEDFGSHYCQHFWTTPWTFGGGTKLEIK

Reference: patent publication US20030031664A1 (GENERAL HOSPITAL, published 2003)
